Test results taken from US20170158755A1 (PROTHENA BIOSCIENCES, published 2017).
Each block holds one binder with its values, some of them ahead of it.

Legend:
[1] = molecular target: T1, LGde1, human LAMA4 G domain with LG1 deleted, displayed on 293 cells (human, UniProt Q16363 1036-1821); assay: flow cytometry, 650-labeled MCAM-Fc on 293 cells displaying the variant
T1 construct: pDisplay construct on 293 cells; vector tags and anchor not written here; also called LGde 1 (LG23)
T1 sequence: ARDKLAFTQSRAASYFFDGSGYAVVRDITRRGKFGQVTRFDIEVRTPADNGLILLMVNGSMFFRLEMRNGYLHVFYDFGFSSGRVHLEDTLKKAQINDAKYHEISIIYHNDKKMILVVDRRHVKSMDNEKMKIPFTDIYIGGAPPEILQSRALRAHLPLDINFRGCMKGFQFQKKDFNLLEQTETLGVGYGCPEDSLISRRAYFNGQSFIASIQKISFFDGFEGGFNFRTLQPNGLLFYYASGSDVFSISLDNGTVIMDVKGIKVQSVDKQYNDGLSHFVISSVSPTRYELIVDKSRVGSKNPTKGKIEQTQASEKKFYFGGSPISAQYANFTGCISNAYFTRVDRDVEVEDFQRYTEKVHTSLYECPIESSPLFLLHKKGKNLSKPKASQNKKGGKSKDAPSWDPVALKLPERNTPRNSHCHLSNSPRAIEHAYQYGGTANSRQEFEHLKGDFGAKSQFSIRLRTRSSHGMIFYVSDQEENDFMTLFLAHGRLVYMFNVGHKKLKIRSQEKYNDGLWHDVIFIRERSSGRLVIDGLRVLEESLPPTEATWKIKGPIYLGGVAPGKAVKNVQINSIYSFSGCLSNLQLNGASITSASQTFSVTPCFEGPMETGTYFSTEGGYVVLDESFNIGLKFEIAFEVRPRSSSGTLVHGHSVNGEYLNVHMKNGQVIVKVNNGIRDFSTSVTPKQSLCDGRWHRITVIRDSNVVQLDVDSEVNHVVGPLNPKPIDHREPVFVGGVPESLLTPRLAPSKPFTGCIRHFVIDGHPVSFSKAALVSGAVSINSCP
Source text: (§1) LGde1 has a full-length G domain (i.e., LG1-5) with LG1 deleted, LGde2 has a full-length G domain with LG2 deleted, and LGde3 has a full-length G domain with LG3 deleted. Recombinant MCAM-Fc protein was able to specifically bind 293 cells expressing LAMA4 variants LG1-5, LG1-3, and LGde 1 (LG23), but not 293 cells expressing LAMA 4 variants LG4-5, LGde2 (LG13), or LGde3 (LG12).

[2] = molecular target: T2, LGde2, human LAMA4 G domain with LG2 deleted, displayed on 293 cells (human, UniProt Q16363 830-1821, limits assumed); assay: as above
T2 construct: pDisplay construct on 293 cells; vector tags and anchor not written here; also called LGde2 (LG13)
T2 sequence: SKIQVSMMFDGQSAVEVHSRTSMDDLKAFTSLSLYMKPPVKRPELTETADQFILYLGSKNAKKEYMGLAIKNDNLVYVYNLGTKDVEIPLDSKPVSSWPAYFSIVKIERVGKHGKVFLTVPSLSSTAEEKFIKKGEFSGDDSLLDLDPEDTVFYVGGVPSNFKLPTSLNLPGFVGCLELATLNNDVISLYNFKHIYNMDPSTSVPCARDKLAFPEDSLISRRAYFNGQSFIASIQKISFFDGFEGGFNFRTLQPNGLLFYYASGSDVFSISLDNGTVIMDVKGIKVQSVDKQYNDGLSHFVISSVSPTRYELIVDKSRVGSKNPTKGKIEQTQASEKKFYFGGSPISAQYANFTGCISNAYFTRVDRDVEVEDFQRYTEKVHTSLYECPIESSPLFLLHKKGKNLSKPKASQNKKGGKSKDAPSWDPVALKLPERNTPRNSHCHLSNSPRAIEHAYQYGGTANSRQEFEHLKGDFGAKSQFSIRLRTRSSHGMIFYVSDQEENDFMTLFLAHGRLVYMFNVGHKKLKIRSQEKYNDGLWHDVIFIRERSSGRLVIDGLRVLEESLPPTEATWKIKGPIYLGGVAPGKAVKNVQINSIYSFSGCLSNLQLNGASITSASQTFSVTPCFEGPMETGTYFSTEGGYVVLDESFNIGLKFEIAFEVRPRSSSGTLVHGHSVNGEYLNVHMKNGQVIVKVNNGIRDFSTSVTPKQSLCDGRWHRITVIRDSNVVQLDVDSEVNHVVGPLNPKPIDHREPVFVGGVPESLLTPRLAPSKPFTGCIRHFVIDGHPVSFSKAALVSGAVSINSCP
Source text: as §1

[3] = molecular target: T3, recombinant laminin 411 (human, UniProt P07942 22-1786; P11047 34-1609, limits assumed); assay: hMCAM.CHO flow cytometric blocking assay; antibody pre-incubated with laminin 411; blocked partner: human MCAM on CHO cells
T3 construct: also called LAMA4 in complex with its gamma1 and beta1 chains
T3 sequence (chain, as listed by the source limits assumed, chain 1 of 3): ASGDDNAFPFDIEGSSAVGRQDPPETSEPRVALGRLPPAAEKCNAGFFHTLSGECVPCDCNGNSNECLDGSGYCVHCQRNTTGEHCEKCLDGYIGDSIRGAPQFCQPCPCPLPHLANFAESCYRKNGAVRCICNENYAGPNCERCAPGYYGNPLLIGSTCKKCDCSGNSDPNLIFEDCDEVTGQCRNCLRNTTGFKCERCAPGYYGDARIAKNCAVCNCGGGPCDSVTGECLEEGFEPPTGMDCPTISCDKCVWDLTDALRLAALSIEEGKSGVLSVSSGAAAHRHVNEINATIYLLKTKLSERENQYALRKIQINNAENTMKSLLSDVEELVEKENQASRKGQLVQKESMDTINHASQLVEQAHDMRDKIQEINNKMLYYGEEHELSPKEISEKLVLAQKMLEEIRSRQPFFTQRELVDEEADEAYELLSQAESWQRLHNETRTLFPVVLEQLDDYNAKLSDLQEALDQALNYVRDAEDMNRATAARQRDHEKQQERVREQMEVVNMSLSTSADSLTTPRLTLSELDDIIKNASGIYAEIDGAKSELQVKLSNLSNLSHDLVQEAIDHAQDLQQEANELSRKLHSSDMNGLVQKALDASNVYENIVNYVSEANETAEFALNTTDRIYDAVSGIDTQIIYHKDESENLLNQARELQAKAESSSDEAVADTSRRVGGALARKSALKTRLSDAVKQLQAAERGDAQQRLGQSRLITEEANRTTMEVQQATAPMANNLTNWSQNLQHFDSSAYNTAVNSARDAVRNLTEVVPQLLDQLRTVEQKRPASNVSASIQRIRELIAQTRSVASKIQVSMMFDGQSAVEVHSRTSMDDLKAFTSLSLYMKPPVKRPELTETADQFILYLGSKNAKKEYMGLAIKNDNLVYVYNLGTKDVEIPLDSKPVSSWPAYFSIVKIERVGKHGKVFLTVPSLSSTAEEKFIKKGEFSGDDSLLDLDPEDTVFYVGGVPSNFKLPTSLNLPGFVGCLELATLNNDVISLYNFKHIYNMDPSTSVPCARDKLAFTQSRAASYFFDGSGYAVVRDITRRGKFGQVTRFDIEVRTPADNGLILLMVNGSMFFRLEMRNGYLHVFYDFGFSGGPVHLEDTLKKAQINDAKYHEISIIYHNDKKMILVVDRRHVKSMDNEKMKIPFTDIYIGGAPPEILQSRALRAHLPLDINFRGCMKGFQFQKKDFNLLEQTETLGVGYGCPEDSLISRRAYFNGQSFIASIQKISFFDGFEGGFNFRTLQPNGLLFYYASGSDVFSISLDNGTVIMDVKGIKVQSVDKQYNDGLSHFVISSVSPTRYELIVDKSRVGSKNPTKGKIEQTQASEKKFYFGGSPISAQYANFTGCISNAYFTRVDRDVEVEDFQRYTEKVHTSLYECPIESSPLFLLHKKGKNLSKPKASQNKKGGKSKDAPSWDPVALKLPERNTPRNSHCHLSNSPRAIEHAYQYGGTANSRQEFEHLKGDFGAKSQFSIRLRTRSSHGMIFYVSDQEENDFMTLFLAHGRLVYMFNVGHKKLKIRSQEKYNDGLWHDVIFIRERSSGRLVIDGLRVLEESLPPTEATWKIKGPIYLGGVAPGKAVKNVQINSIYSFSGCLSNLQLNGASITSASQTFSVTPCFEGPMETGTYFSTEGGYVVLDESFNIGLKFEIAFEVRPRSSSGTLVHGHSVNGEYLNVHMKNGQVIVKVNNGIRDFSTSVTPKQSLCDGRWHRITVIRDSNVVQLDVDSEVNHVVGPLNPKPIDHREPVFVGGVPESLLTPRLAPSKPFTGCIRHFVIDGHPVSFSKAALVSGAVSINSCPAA
T3 sequence (P07942 22-1786 limits assumed, chain 2 of 3): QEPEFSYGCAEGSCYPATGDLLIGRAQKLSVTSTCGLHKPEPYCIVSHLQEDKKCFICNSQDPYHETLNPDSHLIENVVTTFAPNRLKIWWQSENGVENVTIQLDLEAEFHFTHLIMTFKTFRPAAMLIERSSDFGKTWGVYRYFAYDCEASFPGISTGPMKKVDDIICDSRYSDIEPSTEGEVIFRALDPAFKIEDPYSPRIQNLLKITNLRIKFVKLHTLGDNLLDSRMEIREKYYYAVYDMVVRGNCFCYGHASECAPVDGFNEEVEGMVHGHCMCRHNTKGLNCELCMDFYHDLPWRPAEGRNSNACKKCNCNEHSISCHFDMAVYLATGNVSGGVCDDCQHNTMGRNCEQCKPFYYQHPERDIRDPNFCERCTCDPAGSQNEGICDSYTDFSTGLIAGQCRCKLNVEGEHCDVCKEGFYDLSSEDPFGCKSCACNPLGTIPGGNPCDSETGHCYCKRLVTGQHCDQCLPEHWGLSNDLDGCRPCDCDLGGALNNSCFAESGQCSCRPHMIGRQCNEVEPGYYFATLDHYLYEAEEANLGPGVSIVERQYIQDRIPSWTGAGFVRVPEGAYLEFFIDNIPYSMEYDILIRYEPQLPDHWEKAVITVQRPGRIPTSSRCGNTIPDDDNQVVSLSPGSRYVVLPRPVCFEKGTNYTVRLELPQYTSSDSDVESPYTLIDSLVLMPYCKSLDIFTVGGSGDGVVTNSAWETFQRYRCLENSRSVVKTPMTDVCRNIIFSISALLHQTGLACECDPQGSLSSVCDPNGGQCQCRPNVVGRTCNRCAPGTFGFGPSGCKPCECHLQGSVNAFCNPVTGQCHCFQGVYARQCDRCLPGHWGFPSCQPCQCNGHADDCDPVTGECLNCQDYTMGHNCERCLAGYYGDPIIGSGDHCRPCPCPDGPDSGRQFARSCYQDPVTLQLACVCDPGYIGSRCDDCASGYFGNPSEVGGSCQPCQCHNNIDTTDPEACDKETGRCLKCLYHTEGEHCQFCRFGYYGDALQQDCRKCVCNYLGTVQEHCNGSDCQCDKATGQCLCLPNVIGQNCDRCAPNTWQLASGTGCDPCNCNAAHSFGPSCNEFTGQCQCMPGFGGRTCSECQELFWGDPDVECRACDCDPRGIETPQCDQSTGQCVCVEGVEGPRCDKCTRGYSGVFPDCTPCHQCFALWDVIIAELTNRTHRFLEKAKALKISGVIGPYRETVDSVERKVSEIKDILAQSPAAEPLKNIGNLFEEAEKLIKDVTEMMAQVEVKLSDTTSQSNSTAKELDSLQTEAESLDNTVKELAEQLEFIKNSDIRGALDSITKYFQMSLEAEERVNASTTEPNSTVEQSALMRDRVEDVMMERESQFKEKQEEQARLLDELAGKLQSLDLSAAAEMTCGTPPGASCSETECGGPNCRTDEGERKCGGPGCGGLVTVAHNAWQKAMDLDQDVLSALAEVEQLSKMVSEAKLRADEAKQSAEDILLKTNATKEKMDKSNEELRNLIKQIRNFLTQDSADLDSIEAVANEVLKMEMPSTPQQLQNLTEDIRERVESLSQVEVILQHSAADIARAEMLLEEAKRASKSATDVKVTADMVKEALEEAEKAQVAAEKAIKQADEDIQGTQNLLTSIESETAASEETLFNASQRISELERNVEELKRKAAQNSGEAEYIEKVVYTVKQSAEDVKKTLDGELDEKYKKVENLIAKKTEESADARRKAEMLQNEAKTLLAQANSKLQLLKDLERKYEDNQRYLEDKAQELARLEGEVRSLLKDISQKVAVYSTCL
T3 sequence (P11047 34-1609 limits assumed, chain 3 of 3): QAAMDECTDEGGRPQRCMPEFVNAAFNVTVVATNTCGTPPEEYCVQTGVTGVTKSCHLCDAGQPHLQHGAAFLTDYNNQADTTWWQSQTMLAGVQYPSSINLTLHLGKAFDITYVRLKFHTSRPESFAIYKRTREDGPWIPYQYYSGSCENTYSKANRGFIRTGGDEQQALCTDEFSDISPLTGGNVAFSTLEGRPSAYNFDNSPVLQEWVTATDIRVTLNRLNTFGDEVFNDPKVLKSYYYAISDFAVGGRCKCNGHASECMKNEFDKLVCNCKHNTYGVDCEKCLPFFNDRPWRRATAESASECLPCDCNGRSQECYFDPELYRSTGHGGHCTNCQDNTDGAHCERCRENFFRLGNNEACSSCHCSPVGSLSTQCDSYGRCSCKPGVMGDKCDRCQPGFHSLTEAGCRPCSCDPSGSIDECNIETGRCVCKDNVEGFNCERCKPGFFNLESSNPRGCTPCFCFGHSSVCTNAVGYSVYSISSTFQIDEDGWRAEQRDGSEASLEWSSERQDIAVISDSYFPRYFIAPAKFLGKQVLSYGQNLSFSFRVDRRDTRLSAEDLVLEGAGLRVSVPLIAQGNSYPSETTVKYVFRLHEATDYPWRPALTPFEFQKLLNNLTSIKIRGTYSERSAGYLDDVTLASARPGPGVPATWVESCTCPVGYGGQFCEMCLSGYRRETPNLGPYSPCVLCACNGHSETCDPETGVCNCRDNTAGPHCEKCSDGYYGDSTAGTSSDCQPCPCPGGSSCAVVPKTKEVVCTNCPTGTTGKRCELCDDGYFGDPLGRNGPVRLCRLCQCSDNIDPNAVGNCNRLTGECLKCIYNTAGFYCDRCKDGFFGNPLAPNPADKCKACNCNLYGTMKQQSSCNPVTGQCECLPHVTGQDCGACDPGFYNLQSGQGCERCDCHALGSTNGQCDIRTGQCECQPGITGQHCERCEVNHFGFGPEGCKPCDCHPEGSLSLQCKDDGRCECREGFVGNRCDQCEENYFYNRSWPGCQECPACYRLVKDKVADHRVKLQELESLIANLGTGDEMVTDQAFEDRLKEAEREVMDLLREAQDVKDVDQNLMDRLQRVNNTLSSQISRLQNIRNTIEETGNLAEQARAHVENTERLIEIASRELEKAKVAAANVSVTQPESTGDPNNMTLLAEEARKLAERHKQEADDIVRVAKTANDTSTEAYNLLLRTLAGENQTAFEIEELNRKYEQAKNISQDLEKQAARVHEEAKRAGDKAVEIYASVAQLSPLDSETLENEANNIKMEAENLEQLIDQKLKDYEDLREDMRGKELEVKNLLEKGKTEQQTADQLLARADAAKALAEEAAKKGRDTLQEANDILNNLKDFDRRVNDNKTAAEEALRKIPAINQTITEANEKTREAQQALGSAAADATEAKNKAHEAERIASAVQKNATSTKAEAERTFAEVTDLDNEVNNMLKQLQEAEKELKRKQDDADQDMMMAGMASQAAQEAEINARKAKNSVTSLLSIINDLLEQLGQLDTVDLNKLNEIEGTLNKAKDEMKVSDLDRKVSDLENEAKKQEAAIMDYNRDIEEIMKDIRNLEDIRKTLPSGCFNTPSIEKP
Method: The monoclonal antibodies against LAMA4 were tested for their ability to block the binding of LAMA4 to its ligand MCAM. IgG control antibody, 1C1, 5Al2, 5B5, 19C12, and 12D3 were pre-incubated with recombinant LAMA4 protein, LAMA4-positive healthy mouse brain tissue, or LAMA4-displaying human 293 cells. […] For the mouse brain tissue blocking assay, antibodies were used at concentrations of 2.5 ug/ml or 0.04 ug/ml.
Following two washes with FACS buffer (1% FBS in PBS), cells were resuspended with 650-conjugated anti-pan-laminin antibody (1:1000; Novus Biologicals) and incubated for 20 min at 4° C., and washed again. Cells were analyzed for pan-laminin reactivity by flow cytometry using standard procedures.

binding result [1]: binds | binding result [2]: no binding
B1: mouse MCAM-Fc fusion protein (Fc fusion, UniProt Q8R2Y2 24-563, looked up)
chain: VPGEEKQPVPTPDLVEAEVGSTALLKCGPSRASGNFSQVDWFLIHKERQILIFRVHQGKGQREPGEYEHRLSLQDSVATLALSHVTPHDERMFLCKSKRPRLQDHYVELQVFKAPEEPTIQANVVGIHVDRQELREVATCVGRNGYPIPQVLWYKNSLPLQEEENRVHIQSSQIVESSGLYTLKSVLSARLVKEDKDAQFYCELSYRLPSGNHMKESKEVTVPVFYPAEKVWVEVEPVGLLKEGDHVTIRCLTDGNPQPHFTINKKDPSTGEMEEESTDENGLLSLEPAEKHHSGLYQCQSLDLETTITLSSDPLELLVNYVSDVQVNPTAPEVQEGESLTLTCEAESNQDLEFEWLRDKTGQLLGKGPVLQLNNVRREAGGRYLCMASVPRVPGLNRTQLVSVGIFGSPWMALKERKVWVQENAVLNLSCEASGHPQPTISWNVNGSATEWNPDPQTVVSTLNVLVTPELLETGAECTASNSLGSNTTTIVLKLVTLTTLIPDSSQTTGLSTLTVSPHTRANSTSTEKKLPQPESKGVV
notes: extracellular domain; Made in house; also called mMCAM-Fc; 650-conjugated mouse MCAM-Fc; not shown: human IgG1 (Fc part of the fusion)

IC50 (read off the curve) [3]: ~0.03 µg/mL
B2: mouse monoclonal antibody 19C12 (antibody, V domains shown)
VH: QVQLQQSGAELVKPGASVKISCKASGYAFSTYWMNWVKQRPGEGLEWIGQIYPGDGDTNYNGKFKGKATLTADKSSSTAYMQLSSLTSEDSAVYFCARSDGYYDYWGQGTTLTVSS
VL: NIVLTQSPASLAVSLGQRATISCRASESVDSYGTSFMHWYQQKPGQPPKLLICLASSLESGVPARFSGSGSRTDFTLTIDPVEADDAATYYCQQNNEDPPTFGAGTKLELKR
notes: Mouse hybridoma antibody; Mouse IgG2b was used as its isotype control; also called m19C12
